Assay results taken from the supplement of paper PMC9112550, “Optimization of the antimicrobial peptide Bac7 by deep mutational scanning” (BMC Biology, 2022).

What follows are sequences tested on Escherichia coli TOP10 (assay: shrunken log2 fold change of peptide-encoding DNA abundance (4.5 h post-induction vs induction); higher = less antimicrobial activity (less host growth inhibition)). Conditions: time post-induction: 4.5 h; library: site-saturation at positions 5, 18, 19, 20.
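Further: peptides expressed intracellularly from a pBAD plasmid library in pooled LB shake-flask culture, induced with 0.3% L-arabinose, DNA abundance read by NGS, three biological replicates, DESeq2 with apeglm shrinkage.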

Sequence	shrunken log2 fold change
RRIRARPPRLPRPRPRPKPAPRP	0.711
RRIRARPPRLPRPRPRPKQDPRP	0.734
RRIRARPPRLPRPRPRPKTHPRP	0.227
RRIRARPPRLPRPRPRPKTLPRP	0.343
RRIRARPPRLPRPRPRPKTTPRP	0.0562
RRIRARPPRLPRPRPRPKVCPRP	-0.132
RRIRARPPRLPRPRPRPKVPPRP	0.412
RRIRARPPRLPRPRPRPKYKPRP	-0.31
RRIRARPPRLPRPRPRPKYWPRP	0.233
RRIRARPPRLPRPRPRPLASPRP	0.841
RRIRARPPRLPRPRPRPLDFPRP	0.173
RRIRARPPRLPRPRPRPLDKPRP	0.332
RRIRARPPRLPRPRPRPLDNPRP	0.151
RRIRARPPRLPRPRPRPLEWPRP	-0.0062
RRIRARPPRLPRPRPRPLFQPRP	0.0426
RRIRARPPRLPRPRPRPLGAPRP	0.726
RRIRARPPRLPRPRPRPLGPPRP	0.337
RRIRARPPRLPRPRPRPLIRPRP	-0.0546
RRIRARPPRLPRPRPRPLKWPRP	0.218
RRIRARPPRLPRPRPRPLMLPRP	0.32
RRIRARPPRLPRPRPRPLMMPRP	0.205
RRIRARPPRLPRPRPRPLMQPRP	0.223
RRIRARPPRLPRPRPRPLMSPRP	0.302
RRIRARPPRLPRPRPRPLMTPRP	0.474
RRIRARPPRLPRPRPRPLNKPRP	0.028

Sequence	shrunken log2 fold change
RRIRARPPRLPRPRPRPLRGPRP	0.954
RRIRARPPRLPRPRPRPLRVPRP	3.15
RRIRARPPRLPRPRPRPLTYPRP	0.0247
RRIRARPPRLPRPRPRPLVIPRP	-0.152
RRIRARPPRLPRPRPRPLWYPRP	-0.278
RRIRARPPRLPRPRPRPLYIPRP	-0.293
RRIRARPPRLPRPRPRPMACPRP	0.879
RRIRARPPRLPRPRPRPMARPRP	-0.132
RRIRARPPRLPRPRPRPMDGPRP	0.211
RRIRARPPRLPRPRPRPMDVPRP	0.241
RRIRARPPRLPRPRPRPMEYPRP	-0.154
RRIRARPPRLPRPRPRPMFDPRP	-0.101
RRIRARPPRLPRPRPRPMFGPRP	0.215
RRIRARPPRLPRPRPRPMFLPRP	0.00213
RRIRARPPRLPRPRPRPMFNPRP	-0.132
RRIRARPPRLPRPRPRPMFPPRP	-0.147
RRIRARPPRLPRPRPRPMGIPRP	-0.00146
RRIRARPPRLPRPRPRPMGMPRP	0.211
RRIRARPPRLPRPRPRPMGQPRP	0.229
RRIRARPPRLPRPRPRPMHMPRP	-0.0568
RRIRARPPRLPRPRPRPMICPRP	0.0985
RRIRARPPRLPRPRPRPMIKPRP	0.148
RRIRARPPRLPRPRPRPMKMPRP	0.0994
RRIRARPPRLPRPRPRPMLGPRP	0.211
RRIRARPPRLPRPRPRPMMPPRP	0.307

Sequence	shrunken log2 fold change
RRIRARPPRLPRPRPRPMMVPRP	0.212
RRIRARPPRLPRPRPRPMPKPRP	0.411
RRIRARPPRLPRPRPRPMQLPRP	0.206
RRIRARPPRLPRPRPRPMQSPRP	0.43
RRIRARPPRLPRPRPRPMRKPRP	-0.046
RRIRARPPRLPRPRPRPMRRPRP	0.2
RRIRARPPRLPRPRPRPMRYPRP	-0.179
RRIRARPPRLPRPRPRPMSGPRP	0.0632
RRIRARPPRLPRPRPRPMSYPRP	0.163
RRIRARPPRLPRPRPRPMTIPRP	-0.113
RRIRARPPRLPRPRPRPMTVPRP	-0.0938
RRIRARPPRLPRPRPRPMWWPRP	0.166
RRIRARPPRLPRPRPRPMWYPRP	-0.0479
RRIRARPPRLPRPRPRPMYNPRP	-0.48
RRIRARPPRLPRPRPRPNCFPRP	0.0761
RRIRARPPRLPRPRPRPNCQPRP	0.267
RRIRARPPRLPRPRPRPNDNPRP	-0.344
RRIRARPPRLPRPRPRPNEHPRP	0.0215
RRIRARPPRLPRPRPRPNGHPRP	0.53
RRIRARPPRLPRPRPRPNGRPRP	-0.11
RRIRARPPRLPRPRPRPNHNPRP	-0.542
RRIRARPPRLPRPRPRPNIIPRP	-0.248
RRIRARPPRLPRPRPRPNIKPRP	-0.14
RRIRARPPRLPRPRPRPNILPRP	-0.00643
RRIRARPPRLPRPRPRPNMQPRP	0.18

Sequence	shrunken log2 fold change
RRIRARPPRLPRPRPRPNNTPRP	-0.423
RRIRARPPRLPRPRPRPNPRPRP	0.722
RRIRARPPRLPRPRPRPNPSPRP	0.262
RRIRARPPRLPRPRPRPNPVPRP	0.0917
RRIRARPPRLPRPRPRPNSFPRP	-0.232
RRIRARPPRLPRPRPRPNVMPRP	0.153
RRIRARPPRLPRPRPRPNVNPRP	-0.0484
RRIRARPPRLPRPRPRPNWAPRP	0.27
RRIRARPPRLPRPRPRPNWEPRP	-0.0132
RRIRARPPRLPRPRPRPNWFPRP	0.0236
RRIRARPPRLPRPRPRPNWPPRP	0.0205
RRIRARPPRLPRPRPRPPAGPRP	0.883
RRIRARPPRLPRPRPRPPCWPRP	0.967
RRIRARPPRLPRPRPRPPDEPRP	0.338
RRIRARPPRLPRPRPRPPDLPRP	0.829
RRIRARPPRLPRPRPRPPDYPRP	0.406
RRIRARPPRLPRPRPRPPEAPRP	0.699
RRIRARPPRLPRPRPRPPEVPRP	1.17
RRIRARPPRLPRPRPRPPGGPRP	0.864
RRIRARPPRLPRPRPRPPGLPRP	0.517
RRIRARPPRLPRPRPRPPGNPRP	0.574
RRIRARPPRLPRPRPRPPHDPRP	1.02
RRIRARPPRLPRPRPRPPHHPRP	0.675
RRIRARPPRLPRPRPRPPKEPRP	0.818
RRIRARPPRLPRPRPRPPLAPRP	0.861

Sequence	shrunken log2 fold change
RRIRARPPRLPRPRPRPPLDPRP	1
RRIRARPPRLPRPRPRPPLGPRP	0.671
RRIRARPPRLPRPRPRPPMMPRP	0.421
RRIRARPPRLPRPRPRPPMNPRP	0.134
RRIRARPPRLPRPRPRPPPDPRP	1.18
RRIRARPPRLPRPRPRPPPPPRP	1.46
RRIRARPPRLPRPRPRPPQFPRP	0.953
RRIRARPPRLPRPRPRPPQMPRP	0.868
RRIRARPPRLPRPRPRPPQRPRP	1.16
RRIRARPPRLPRPRPRPPQSPRP	0.993
RRIRARPPRLPRPRPRPPRCPRP	0.931
RRIRARPPRLPRPRPRPPRDPRP	1.04
RRIRARPPRLPRPRPRPPRIPRP	0.827
RRIRARPPRLPRPRPRPPSVPRP	0.479
RRIRARPPRLPRPRPRPPVGPRP	1.18
RRIRARPPRLPRPRPRPPVWPRP	0.685
RRIRARPPRLPRPRPRPPWYPRP	0.139
RRIRARPPRLPRPRPRPPYIPRP	-0.38
RRIRARPPRLPRPRPRPPYYPRP	0.0635
RRIRARPPRLPRPRPRPQAEPRP	0.892
RRIRARPPRLPRPRPRPQAMPRP	0.132
RRIRARPPRLPRPRPRPQAYPRP	-0.0327
RRIRARPPRLPRPRPRPQCPPRP	0.108
RRIRARPPRLPRPRPRPQEWPRP	0.00318
RRIRARPPRLPRPRPRPQFEPRP	-0.102

Sequence	shrunken log2 fold change
RRIRARPPRLPRPRPRPQICPRP	0.176
RRIRARPPRLPRPRPRPQITPRP	0.118
RRIRARPPRLPRPRPRPQLFPRP	0.18
RRIRARPPRLPRPRPRPQNCPRP	-0.19
RRIRARPPRLPRPRPRPQPAPRP	0.679
RRIRARPPRLPRPRPRPQPCPRP	0.276
RRIRARPPRLPRPRPRPQPWPRP	0.536
RRIRARPPRLPRPRPRPQQLPRP	0.176
RRIRARPPRLPRPRPRPQQSPRP	0.54
RRIRARPPRLPRPRPRPQREPRP	0.869
RRIRARPPRLPRPRPRPQRPPRP	0.517
RRIRARPPRLPRPRPRPQSLPRP	0.026
RRIRARPPRLPRPRPRPQTAPRP	0.188
RRIRARPPRLPRPRPRPQYQPRP	-0.243
RRIRARPPRLPRPRPRPRATPRP	0.581
RRIRARPPRLPRPRPRPRCCPRP	0.582
RRIRARPPRLPRPRPRPRDYPRP	0.204
RRIRARPPRLPRPRPRPREAPRP	1.25
RRIRARPPRLPRPRPRPREFPRP	0.441
RRIRARPPRLPRPRPRPRFFPRP	0.453
RRIRARPPRLPRPRPRPRFRPRP	0.459
RRIRARPPRLPRPRPRPRHEPRP	0.638
RRIRARPPRLPRPRPRPRHQPRP	0.178
RRIRARPPRLPRPRPRPRITPRP	0.173
RRIRARPPRLPRPRPRPRKTPRP	0.29
